Reference: patent US20240382633A1, “RADIOPHARMACEUTICALS, METHODS FOR THE PRODUCTION THEREOF, AND USES IN TREATMENT, DIAGNOSIS AND IMAGING DISEASES” (priority 2021, published 2024)

How the values were obtained:
in vivo = experiment: in vivo; set-up: species or system Balb/c nude mice; settings: male, Balb/c nude, mouse, iv, total radioactivity, Percentage of injected dose
Source text: (§1) Healthy male Balb/c nude mice (˜18 g) from 8 weeks old were obtained from the ARC and used for this study. Mice were imported into the CAI animal holding facility and monitored for 1 week prior to the study in order to acclimatize to the environment prior to injection of cells. All animals were provided with free access to food and water before and during the imaging experiments which were approved by the University of Queensland Animal Ethics Committee (Approval #AIBN/CAI/105/19/ARC/NHMRC).
(§2) 8-week-old male Balb/c nude mice were injected (27G needle) subcutaneously with PC3 ([…]) cells in 50 μL of 50:50 matrigel and cells in phosphate buffered saline into the right flank of each mouse. There was no evidence of ulceration at the time of dosing; the animals were closely monitored and remained in good condition apart from the growth of tumours. […] Labelled peptides were injected via the tail vein (29G needle; ˜2-3 MBq) and then mice were imaged using the Siemens Inveon PET-CT instrument at the various time points.
(§3) Organs were excised at 24 hours, with the percentage of injected dose of the administered compound determined by ex vivo gamma counting (Table 1, FIG. 5). Values are averages across 4 mice.

PC3 tumours = experiment: in vivo; set-up: species or system Balb/c nude mice; settings: mouse
Source text: as §1, §2, §3

[1] = Stability of aqueous formulation (radiochemical purity over time); type: physicochemical; settings: up to 48 hours post End of Synthesis, 3 validation batches
Procedure: Product stability was monitored up to 48 hours post End of Synthesis (EOS) for 3 validation batches of [^64Cu]Formula (Ib) in an aqueous formulation prepared as outlined above. Due to time restrictions, identical stability sampling time points were not always achievable. […] This is attributed to radioactive decay reducing the peak area of radiolytic impurities to below detectable limits, rather than a true increase in the radiochemical purity.

In the case of CC(C)C[C@H](NC(=O)C[C@H](O)[C@H](CC(C)C)NC(=O)[C@H](Cc1c[nH]cn1)NC(=O)CNC(=O)[C@@H](NC(=O)[C@H](C)NC(=O)[C@H](Cc1c[nH]c2ccccc12)NC(=O)[C@H](CCC(N)=O)NC(=O)[C@@H](Cc1ccccc1)NC(=O)CCOCCOCCOCCOCCNC(=O)CCCC(=O)NC12CNCCNCC(NC(=O)CCCC(=O)NCCOCCOCCOCCOCCC(=O)N[C@H](Cc3ccccc3)C(=O)N[C@@H](CCC(N)=O)C(=O)N[C@@H](Cc3c[nH]c4ccccc34)C(=O)N[C@@H](C)C(=O)N[C@H](C(=O)NCC(=O)N[C@@H](Cc3c[nH]cn3)C(=O)N[C@@H](CC(C)C)[C@@H](O)CC(=O)N[C@@H](CC(C)C)C(N)=O)C(C)C)(CNCCNC1)CNCCNC2)C(C)C)C(N)=O [[^64Cu]Formula (Ia), metal not drawn], the tissue uptake at 24 h (in vivo; Blood) is reported as 0.1 ± 0.05 %ID/g, the tissue uptake at 24 h (in vivo; GI Tract) is reported as 0.44 ± 0.04 %ID/g and the tissue uptake at 24 h (in vivo; Heart) is reported as 0.21 ± 0.03 %ID/g. The tissue uptake at 24 h (in vivo; Kidneys) was 6.81 ± 0.67 %ID/g, the tissue uptake at 24 h (in vivo; Liver) was 16.8 ± 1.55 %ID/g and the tissue uptake at 24 h (in vivo; Lungs) was 0.36 ± 0.12 %ID/g. For the same compound, the tissue uptake at 24 h (in vivo; Pancreas) was 0.84 ± 0.06 %ID/g, the tissue uptake at 24 h (in vivo; Spleen) was 1.47 ± 0.2 %ID/g and the tissue uptake at 24 h (in vivo; Tumour) was 2.13 ± 0.86 %ID/g. The “Percentage of injected dose, Tail” value (PC3 tumours) was 0.28 0.05 % ID/g.

In the case of CC(C)C[C@H](NC(=O)C[C@H](O)[C@H](CC(C)C)NC(=O)[C@H](Cc1c[nH]cn1)NC(=O)CNC(=O)[C@@H](NC(=O)[C@H](C)NC(=O)[C@H](Cc1c[nH]c2ccccc12)NC(=O)[C@H](CCC(N)=O)NC(=O)[C@@H](Cc1ccccc1)NC(=O)CCOCCOCCOCCOCCNC(=O)CCCC(=O)NC12CNCCNCC(C)(CNCCNC1)CNCCNC2)C(C)C)C(N)=O [[^64Cu]Formula (Ib), metal not drawn], the tissue uptake at 24 h (in vivo; Blood) is reported as 0.13 ± 0.04 %ID/g, the tissue uptake at 24 h (in vivo; GI Tract) is reported as 0.3 ± 0.07 %ID/g and the tissue uptake at 24 h (in vivo; Heart) is reported as 0.24 ± 0.02 %ID/g. The tissue uptake at 24 h (in vivo; Kidneys) was 3.55 ± 0.79 %ID/g, the tissue uptake at 24 h (in vivo; Liver) was 1.52 ± 0.18 %ID/g and the tissue uptake at 24 h (in vivo; Lungs) was 0.31 ± 0.08 %ID/g. The tissue uptake at 24 h (in vivo; Pancreas) was 0.23 ± 0.02 %ID/g, the tissue uptake at 24 h (in vivo; Spleen) was 0.38 ± 0.06 %ID/g and the tissue uptake at 24 h (in vivo; Tail) was 0.56 ± 0.87 %ID/g. The tissue uptake at 24 h (in vivo; Tumour) was 4.09 ± 0.52 %ID/g and the “radiochemical purity (stability)” value [1] was no less than 92.4%.
